Results on two proteins are retold here after publication PMC7461331, “Stability of Begomoviral pathogenicity determinant βC1 is modulated by mutually antagonistic SUMOylation and SIM interactions” (BMC Biology, 2020).

The series deals with the molecule itself. The series can be described thus: SEC; size exclusion profile of recombinant NiNTA purified 6X HIS SUMO proteins on a SD75 column, void volume 40.25 ml; AtSUMO3 and AtSUMO5 after refolding. Background: Size exclusion chromatography separates by hydrodynamic size, large species first.

B1: 6X HIS tagged AtSUMO3, recombinant, refolded (natural protein, Arabidopsis thaliana, UniProt Q9FLP5 1-111, looked up)
chain: MSNPQDDKPIDQEQEAHVILKVKSQDGDEVLFKNKKSAPLKKLMYVYCDRRGLKLDAFAFIFNGARIGGLETPDELDMEDGDVIDACRAMSGGLRANQRQWSYMLFDHNGL
notes: 15N-labelled; not shown: His6, N-terminal, kept
Turning to B1, the binding result is listed as “binds”.

B2: 6X HIS tagged AtSUMO5, recombinant, refolded (natural protein, Arabidopsis thaliana, UniProt Q8VZI7 1-108, looked up)
chain: MVSSTDTISASFVSKKSRSPETSPHMKVTLKVKNQQGAEDLYKIGTHAHLKKLMSAYCTKRNLDYSSVRFVYNGREIKARQTPAQLHMEEEDEICMVMELGGGGPYTP
notes: as for B1
Consider B2, for which the binding result is “binds”.
